US20040137000A1 (UNITED BIOMEDICAL, published 2004)
Like-named read-outs stand apart in the source and are kept apart here.

Legend:
[1] = molecular target: T1, recombinant soluble CD4 (rsCD4) (UniProt P01730 26-396, limits assumed); experiment: ELISA on rsCD4
T1 construct: Bought reagent coated on ELISA plates at 0.25 µg/ml; also called solid-phase rsCD4

[2] = molecular target: T2, CD4 on the surface of host T cells (HIV receptor complex involving CD4) (UniProt P01730 26-458, limits assumed); experiment: cell-based or functional assay
[3] = molecular target: T2, CD4 on the surface of host T cells (HIV …); experiment: cell-based or functional assay; remark: listed apart in the source

Row | Binder | fold reduction in binding compared to the chimeric antibody [1] [fold] | Antibody Conc (µg/ml) at 50% Inhibition; MT-2 microplaque neutralization, HIV-1 TH036 (PBL), clade E [2] [µg/mL] | Antibody Conc (µg/ml) at 50% Inhibition; MT-2 microplaque neutralization, HIV-1 UG029 (PBL), clade A [2] [µg/mL] | Antibody Conc (µg/ml) at 50% Inhibition; MT-2 microplaque neutralization, HIV-1 VL135 (PBL), clade B [2] [µg/mL] | Antibody Conc (µg/ml) at 50% Inhibition; MT-2 microplaque neutralization, HIV-1 MN (H9 cells), clade B [3] [µg/mL] | Antibody Conc (µg/ml) at 50% Inhibition; MT-2 microplaque neutralization, HIV-1 TH036 (PBL), clade E [3] [µg/mL] | Antibody Conc (µg/ml) at 50% Inhibition; MT-2 microplaque neutralization, HIV-1 UG029 (PBL), clade A [3] [µg/mL] | Antibody Conc (µg/ml) at 50% Inhibition; MT-2 microplaque neutralization, HIV-1 UG046 (PBL), clade D [3] [µg/mL] | Antibody Conc (µg/ml) at 50% Inhibition; MT-2 microplaque neutralization, HIV-1 UG266 (PBL), clade D [3] [µg/mL] | Antibody Conc (µg/ml) at 50% Inhibition; MT-2 microplaque neutralization, HIV-1 VL135 (PBL), clade B [3] [µg/mL] | Antibody Conc (µg/ml) at 50% Inhibition; MT-2 microplaque neutralization, HIV-1 ZIM748 (PBL), clade C [3] [µg/mL]
1 | deimmunized B4 antibody DIVHv.3/VKv.2 produced by NS0 cells (antibody, human IgG1, V domains shown, Human IgG1 and human kappa constant regions; NS0 cells; also called DIVHv.3/V v.2; DIVH3/VK2) VH: QVQLVQSGAEVKKPGASVKVSCKASGYTFTDYVIHWVKQATGQGLEWIGEIYPGSGSAYSNAKFKDRVTITADKSTNTAYMELRSLRSDDTAVYFCARRGNGTGFAYWGQGTLVTVSS VL: DIVLTQSPASLAVSPGQRATITCKAGQSVDYDGDSYMNWYQQKPGQPPKLLIYVASNLESGIPSRFSGSGSGTDFTLTINPVEENDTATYYCQQSYKDPLTFGQGTKVEIK | < 3 | 0.7 | 0.92 | 0.35 |  |  |  |  |  |  | 
2 | murine monoclonal antibody B4 (antibody, V domains shown) VH: QVQLQQSGPELVKPGASVRMSCKASGYTFTDYVIHWVKQRTGQGLEWIGEIYPGSGSAYSNAKFKDKATLTADKSSNTAYMQLSSLTSEDSAVYFCARRGNGTGFAYWGQGTLVTVSA VL: DIVLTQSPASLAVSLGQRATISCKAGQSVDYDGDSYMNWYQQKPGQPPKLLIYVASNLESGIPARFSGSGSGTDFTLNIHPVEEEDAATYYCQQSYKDPLTFGAGTKLELK |  | 0.24 | 0.28 | 0.17 | 14 | 0.25 | 0.44 | 0.4 | 0.4 | 0.16 | 0.21
3 | deimmunized B4 antibody DIVHv.1/VKv.2 produced by NS0 cells (antibody, human IgG1, V domains shown) VH: QVQLVQSGPELKKPGASVKVSCKASGYTFTDYVIHWVKQATGQGLEWIGEIYPGSGSAYSNAKFKDRVTMTADKSSNTAYMELSSLTSDDTAVYFCARRGNGTGFAYWGQGTLVTVSS VL: DIVLTQSPASLAVSPGQRATITCKAGQSVDYDGDSYMNWYQQKPGQPPKLLIYVASNLESGIPSRFSGSGSGTDFTLTINPVEENDTATYYCQQSYKDPLTFGQGTKVEIK |  | 0.51 | 0.73 | 0.24 |  |  |  |  |  |  | 
4 | deimmunized B4 antibody DIVHv.3/VKv.1 produced by NS0 cells (antibody, human IgG1, V domains shown, Human IgG1 and human kappa constant regions; NS0 cells; also called DIVHv.3/V v.1; DIVH3/VK1) VH: QVQLVQSGAEVKKPGASVKVSCKASGYTFTDYVIHWVKQATGQGLEWIGEIYPGSGSAYSNAKFKDRVTITADKSTNTAYMELRSLRSDDTAVYFCARRGNGTGFAYWGQGTLVTVSS VL: DIVLTQSPASLAVSLGQRATITCKAGQSVDYDGDSYMNWYQQKPGQPPKLLIYVASNLESGIPARFSGSGSGTDFTLNIHPVEENDAATYYCQQSYKDPLTFGQGTKLEIK | < 3 |  |  |  | > 100 | 0.58 | 0.63 | 0.99 | 2.2 | 0.26 | 0.42
5 | deimmunized B4 antibody DIVHv.2/VKv.2 produced by NS0 cells (antibody, human IgG1, V domains shown, Human IgG1 and human kappa constant regions; NS0 cells; also called DIVHv.2/V v.2; DIVH2/VK2) VH: QVQLVQSGAEVKKPGASVKVSCKASGYTFTDYVIHWVRQATGQGLEWIGEIYPGSGSAYSNAKFKDRVTITADKSTNTAYMELRSLRSDDTAVYFCARRGNGTGFAYWGQGTLVTVSS VL: DIVLTQSPASLAVSPGQRATITCKAGQSVDYDGDSYMNWYQQKPGQPPKLLIYVASNLESGIPSRFSGSGSGTDFTLTINPVEENDTATYYCQQSYKDPLTFGQGTKVEIK | < 3 | 0.63 | 0.73 | 0.23 |  |  |  |  |  |  | 
6 | deimmunized B4 antibody DIVHv.2/VKv.3 produced by NS0 cells (antibody, human IgG1, V domains shown, Human IgG1 and human kappa constant regions; NS0 cells; also called DIVHv.2/V v.3; DIVH2/VK3) VH: QVQLVQSGAEVKKPGASVKVSCKASGYTFTDYVIHWVRQATGQGLEWIGEIYPGSGSAYSNAKFKDRVTITADKSTNTAYMELRSLRSDDTAVYFCARRGNGTGFAYWGQGTLVTVSS VL: DIVLTQSPASLAVSPGQRATITCKAGQSVDYDGDSYMNWYQQKPGQPPKLLIYVASNLESGIPSRFSGSGSGTDFTLTINPVEENDTATYYCQQSYKDPLAFGPGTKVEIK | 5 | 0.62 | 1.2 | 0.67 |  |  |  |  |  |  | 
7 | deimmunized B4 antibody DIVHv.1/VKv.3 produced by NS0 cells (antibody, human IgG1, V domains shown) VH: QVQLVQSGPELKKPGASVKVSCKASGYTFTDYVIHWVKQATGQGLEWIGEIYPGSGSAYSNAKFKDRVTMTADKSSNTAYMELSSLTSDDTAVYFCARRGNGTGFAYWGQGTLVTVSS VL: DIVLTQSPASLAVSPGQRATITCKAGQSVDYDGDSYMNWYQQKPGQPPKLLIYVASNLESGIPSRFSGSGSGTDFTLTINPVEENDTATYYCQQSYKDPLAFGPGTKVEIK |  | 0.77 | 1 | 0.39 |  |  |  |  |  |  | 
8 | deimmunized B4 antibody DIVHv.3/VKv.3 produced by NS0 cells (antibody, human IgG1, V domains shown, Human IgG1 and human kappa constant regions; NS0 cells; also called DIVHv.3/V v.3; DIVH3/VK3) VH: QVQLVQSGAEVKKPGASVKVSCKASGYTFTDYVIHWVKQATGQGLEWIGEIYPGSGSAYSNAKFKDRVTITADKSTNTAYMELRSLRSDDTAVYFCARRGNGTGFAYWGQGTLVTVSS VL: DIVLTQSPASLAVSPGQRATITCKAGQSVDYDGDSYMNWYQQKPGQPPKLLIYVASNLESGIPSRFSGSGSGTDFTLTINPVEENDTATYYCQQSYKDPLAFGPGTKVEIK | 5 | 0.44 | 1.1 | 0.62 |  |  |  |  |  |  | 
9 | deimmunized B4 antibody DIVHv.4/VKv.2 produced by NS0 cells (antibody, human IgG1, V domains shown, Human IgG1 and human kappa constant regions; NS0 cells; also called DIVHv.4/V v.2) VH: QVQLVQSGAEVKKPGASVKVSCKASGYTFTDYVIHWVRQATGQGLEWIGEIYPGSGSAYSNSKFKDRVTITADKSTNTAYMELRSLRSDDTAVYFCARRGNGTGFAYWGQGTLVTVSS VL: DIVLTQSPASLAVSPGQRATITCKAGQSVDYDGDSYMNWYQQKPGQPPKLLIYVASNLESGIPSRFSGSGSGTDFTLTINPVEENDTATYYCQQSYKDPLTFGQGTKVEIK | < 3 | 0.32 | 0.48 | 0.3 |  |  |  |  |  |  | 
10 | deimmunized B4 antibody DIVHv.1/VKv.1 produced by NS0 cells (antibody, human IgG1, V domains shown) VH: QVQLVQSGPELKKPGASVKVSCKASGYTFTDYVIHWVKQATGQGLEWIGEIYPGSGSAYSNAKFKDRVTMTADKSSNTAYMELSSLTSDDTAVYFCARRGNGTGFAYWGQGTLVTVSS VL: DIVLTQSPASLAVSLGQRATITCKAGQSVDYDGDSYMNWYQQKPGQPPKLLIYVASNLESGIPARFSGSGSGTDFTLNIHPVEENDAATYYCQQSYKDPLTFGQGTKLEIK |  |  |  |  | > 100 | 0.31 | 0.47 | 2.1 | 0.82 | 0.21 | 0.45
11 | deimmunized B4 antibody DIVHv.2/VKv.1 produced by NS0 cells (antibody, human IgG1, V domains shown, Human IgG1 and human kappa constant regions; NS0 cells; also called DIVHv.2/V v.1; DIVH2/VK1) VH: QVQLVQSGAEVKKPGASVKVSCKASGYTFTDYVIHWVRQATGQGLEWIGEIYPGSGSAYSNAKFKDRVTITADKSTNTAYMELRSLRSDDTAVYFCARRGNGTGFAYWGQGTLVTVSS VL: DIVLTQSPASLAVSLGQRATITCKAGQSVDYDGDSYMNWYQQKPGQPPKLLIYVASNLESGIPARFSGSGSGTDFTLNIHPVEENDAATYYCQQSYKDPLTFGQGTKLEIK | < 3 |  |  |  | > 100 | 0.5 | 0.79 | 0.98 | 1.2 | 0.53 | 0.63
12 | deimmunized B4 antibody DIVHv.4/VKv.1 produced by NS0 cells (antibody, human IgG1, V domains shown, Human IgG1 and human kappa constant regions; NS0 cells; also called DIVHv.4/V v.1) VH: QVQLVQSGAEVKKPGASVKVSCKASGYTFTDYVIHWVRQATGQGLEWIGEIYPGSGSAYSNSKFKDRVTITADKSTNTAYMELRSLRSDDTAVYFCARRGNGTGFAYWGQGTLVTVSS VL: DIVLTQSPASLAVSLGQRATITCKAGQSVDYDGDSYMNWYQQKPGQPPKLLIYVASNLESGIPARFSGSGSGTDFTLNIHPVEENDAATYYCQQSYKDPLTFGQGTKLEIK | < 3 |  |  |  | > 100 | 0.35 | 0.35 | 1.1 | 7 | 0.26 | 0.28
